Numbering of substitutions follows the chain as printed. Values belong to the binder of their own block, whether it stands above or below them.
Experiments:
[1] = target: T1, Fc-tagged ECD of ErbB2 (ErbB family member, R&D 1129-ER) (human, UniProt P04626 23-652); assay: ELISA on immobilized Fc-tagged ErbB ECDs
T1 construct: extracellular domain; not shown: Fc tag of the bought protein

[2] = target: T2, Fc-tagged ECD of ErbB3 (R&D 348-RB) (human, UniProt P21860 20-643); assay: ELISA on immobilized Fc-tagged ErbB ECDs
T2 construct: extracellular domain; also called ErbB family member; not shown: Fc tag of the bought protein

[3] = target: T3, Fc-tagged ECD of ErbB4 (ErbB family member, R&D 1131-ER) (human, UniProt Q15303 26-651); assay: ELISA on immobilized Fc-tagged ErbB ECDs
T3 construct: extracellular domain; not shown: Fc tag of the bought protein
T3 sequence (looked up): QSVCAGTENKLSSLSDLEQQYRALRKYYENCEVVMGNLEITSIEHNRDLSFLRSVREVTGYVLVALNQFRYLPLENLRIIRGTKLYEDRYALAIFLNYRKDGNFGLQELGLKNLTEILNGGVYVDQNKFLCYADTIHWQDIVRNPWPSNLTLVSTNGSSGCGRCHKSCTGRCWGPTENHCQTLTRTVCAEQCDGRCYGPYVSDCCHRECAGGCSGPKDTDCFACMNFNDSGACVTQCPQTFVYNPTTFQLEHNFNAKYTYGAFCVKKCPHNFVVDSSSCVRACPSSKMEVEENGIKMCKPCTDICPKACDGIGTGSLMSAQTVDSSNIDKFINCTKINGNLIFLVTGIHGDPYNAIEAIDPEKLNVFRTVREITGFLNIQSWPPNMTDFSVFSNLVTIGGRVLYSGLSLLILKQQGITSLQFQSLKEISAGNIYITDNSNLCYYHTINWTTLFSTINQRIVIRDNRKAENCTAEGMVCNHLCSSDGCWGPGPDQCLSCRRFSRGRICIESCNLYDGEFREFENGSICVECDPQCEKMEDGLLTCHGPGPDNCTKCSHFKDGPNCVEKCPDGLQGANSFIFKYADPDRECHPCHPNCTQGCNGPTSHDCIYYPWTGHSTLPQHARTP

[4] = target: T4, EGFR-D28 on HEK293F cells (UniProt P00533 25-1210); assay: flow cytometry dose response on transfected HEK293F cells
T4 construct: whole, on cells; also called EGFR-28; not shown: C-terminal GFP of the parent EGFR-GFP construct

[5] = target: T5, EGFR-DM (Y251A/R285S) on HEK293F cells (UniProt P00533 25-1210); assay: as above
T5 construct: whole, on cells; not shown: C-terminal GFP of the parent EGFR-GFP construct

[6] = target: T6, full-length EGFR with a C-terminal GFP fusion (EGFR-GFP) on HEK293F cells (UniProt P00533 25-1210); assay: flow cytometry dose response on EGFR-293F cells
T6 construct: whole, on cells; also called EGFR (HEK293F transfected); not shown: C-terminal GFP fusion

[7] = target: T7, cell-surface EGFR (endogenous on A431, MDA-MB-231 and other cancer cell lines); pBABE-EGFR transfected 293T … (UniProt P00533 25-1210, limits assumed); assay: flow cytometry dose response on A431 cells, without EGF
T7 construct: whole, on cells; Untagged EGFR on cells; also called endogenous cell-surface EGFR; EGFR1

[8] = target: T6, full-length EGFR with a C-terminal GFP …; assay: flow cytometry on HEK293F cells transiently expressing EGFR
[9] = target: T8, Fc-tagged extracellular domain (ECD) of the recombinant human EGFR (rhEGFR) (human, UniProt P00533 25-645); assay: competitive phage ELISA with soluble rhEGFR as competitor, phage-displayed Fab
T8 construct: extracellular domain; also called rhEGFR-ECD; rhEGFR-ECD-Fc; not shown: Fc tag of the bought protein (R&D 344-ER)

[10] = target: T5, EGFR-DM (Y251A/R285S) on HEK293F cells; assay: flow cytometry on HEK293F cells transiently expressing EGFR-DM
[11] = target: T4, EGFR-D28 on HEK293F cells; assay: flow cytometry on HEK293F cells transiently expressing EGFR-D28
[12] = target: T8, Fc-tagged extracellular domain (ECD) of …; assay: biolayer interferometry, Fab immobilized, rhEGFR in solution, 1:1 global fit
[13] = target: T9, EGFR fragment D3-D4 on HEK293F cells (UniProt P00533 334-645, limits assumed); assay: flow cytometry heat map of relative binding, 293F cells expressing EGFR EC domains
T9 construct: domain: D3-D4

[14] = target: T10, EGFR fragment D2-D3-D4 on HEK293F cells (UniProt P00533 190-645, limits assumed); assay: as above
T10 construct: domain: D2-D3-D4

[15] = target: T11, EGFR-vIII on HEK293F cells (UniProt P00533 25-1210); assay: flow cytometry, HEK293F cells transiently expressing EGFR-vIII against cells expressing GFP
T11 construct: whole, on cells

[16] = target: T8, Fc-tagged extracellular domain (ECD) of …; assay: competitive phage ELISA with soluble rhEGFR as competitor, phage-displayed Fab; affinity-matured clone Fab 8708
[17] = target: T8, Fc-tagged extracellular domain (ECD) of …; assay: multi-point competitive ELISA: soluble EGFR competes with immobilized EGFR for Clone 24
[18] = target: T8, Fc-tagged extracellular domain (ECD) of …; assay: multi-point competitive ELISA: soluble EGFR competes with immobilized EGFR for Clone 23
[19] = target: T8, Fc-tagged extracellular domain (ECD) of …; assay: ELISA: biotinylated EGF on immobilized EGFR, with or without pre-incubation with unlabeled EGF
[20] = target: T8, Fc-tagged extracellular domain (ECD) of …; assay: biolayer interferometry, Fab immobilized, rhEGFR-ECD-Fc in solution, 1:1 model
[21] = target: T7, cell-surface EGFR (endogenous on A431, …); assay: flow cytometry dose response on A431 cells after incubation with 10 nM EGF

binding result [1]: no binding | binding result [2]: no binding | binding result [3]: no binding | fold change of EC50 against EGFR [4]: < 3 fold | fold change of EC50 against EGFR [5]: < 3 fold | EC50 (read off the curve) [6]: ~6 nM | EC50 (read off the curve) [7]: ~6 nM | EC50 [8]: 8.2 nM | fold enhancement in affinity against parent Fab DL06 [9]: 7 fold | EC50 [10]: 23 nM | EC50 [11]: 21 nM | Kd [12]: 6.8 nM | koff [12]: 5.6e-05 s⁻¹ | kon [12]: 7000 M⁻¹ s⁻¹ | binding result [13]: no binding | binding result [14]: no binding | binding result [15]: no binding (tested: 200 nM) | IC50 [16]: ~30 nM
B1: Fab 8708 (Fab DL06 AM SR02) (Fab)
heavy: EVQLVESGGGLVQPGGSLRLSCAASGFNISSSSIHWVRQAPGKGLEWVAYISSYYSSTYYADSVKGRFTISADTSKNTAYLQMNSLRAEDTAVYYCARTYCPPLMRYNPTTYQMDVNPEAQYSFGATCGWAMDYWGQGTLVTVSSASTKGPSVFPLAPSSKSTSGGTAALGCLVKDYFPEPVTVSWNSGALTSGVHTFPAVLQSSGLYSLSSVVTVPSSSLGTQTYICNVNHKPSNTKVDKKVEPKSCDKTHT
light: DIQMTQSPSSLSASVGDRVTITCRASQSVSSAVAWYQQKPGKAPKLLIYSASSLYSGVPSRFSGSRSGTDFTLTISSLQPEDFATYYCQQWSYYPITFGQGTKVEIKRTVAAPSVFIFPPSDSQLKSGTASVVCLLNNFYPREAKVQWKVDNALQSGNSQESVTEQDSKDSTYSLSSTLTLSKADYEKHKVYACEVTHQGLSSPVTKSFNRGECGGSDYKDDDDK
notes: Purified Fab in most assays; also called DL06 SR02; Fab DL06 SR02

binding result [17]: binds
B2: Fab DL06 AM Clone 24 (Fab)
heavy: EVQLVESGGGLVQPGGSLRLSCAASGFNISSSSIHWVRQAPGKGLEWVAYISSYYSSTYYADSVKGRFTISADTSKNTAYLQMNSLRAEDTAVYYCARTFCPPLMLFNPTTFQLEINAEAKYSFASTCGWAMDYWGQGTLVTVSSASTKGPSVFPLAPSSKSTSGGTAALGCLVKDYFPEPVTVSWNSGALTSGVHTFPAVLQSSGLYSLSSVVTVPSSSLGTQTYICNVNHKPSNTKVDKKVEPKSCDKTHT
light: B1 light
notes: Purified Fab

binding result [18]: binds
B3: Fab DL06 AM Clone 23 (Fab)
heavy: B2 heavy with L104I, P109A, T111S, Q113E, E115D, N117D, Y122F
light: B1 light
notes: Purified Fab

binding result [19]: binds
B4: Recombinant EGF ligand (ligand, UniProt P01133 971-1023, looked up)
chain: NSDSECPLSHDGYCLHDGVCMYIEALDKYACNCVVGYIGERCQYRDLKWWELR
modifications: biotinylated with the N-hydroxysuccinimide ester of biotin in the ligand binding ELISA
notes: also called biotinylated EGF

binding result [1]: no binding | binding result [2]: no binding | binding result [3]: no binding | fold change of EC50 against EGFR [4]: < 3 fold | fold change of EC50 against EGFR [5]: < 3 fold | EC50 (read off the curve) [6]: ~0.6 nM | EC50 (read off the curve) [7]: ~0.6 nM | EC50 [8]: 0.6 nM | fold faster off-rate than Fab 8708 [20]: 3 fold | fold faster on-rate than Fab 8708 [20]: 18 fold | EC50 [10]: 1.4 nM | EC50 [11]: 1.4 nM | EC50 (read off the curve) [21]: ~3 nM | Kd [12]: 1.4 nM | koff [12]: 0.00017 s⁻¹ | kon [12]: 130000 M⁻¹ s⁻¹ | binding result [13]: no binding | binding result [14]: no binding | binding result [15]: no binding (tested: 200 nM)
B5: Fab 8709 (Fab H) (Fab)
heavy: EVQLVESGGGLVQPGGSLRLSCAASGFNLYSSSMHWVRQAPGKGLEWVASIYPYSGYTYYADSVKGRFTISADTSKNTAYLQMNSLRAEDTAVYYCARYPFGVSAYYAMDYWGQGTLVTVSSASTKGPSVFPLAPSSKSTSGGTAALGCLVKDYFPEPVTVSWNSGALTSGVHTFPAVLQSSGLYSLSSVVTVPSSSLGTQTYICNVNHKPSNTKVDKKVEPKSCDKTHT
light: DIQMTQSPSSLSASVGDRVTITCRASQSVSSAVAWYQQKPGKAPKLLIYSASSLYSGVPSRFSGSRSGTDFTLTISSLQPEDFATYYCQQSYWLITFGQGTKVEIKRTVAAPSVFIFPPSDSQLKSGTASVVCLLNNFYPREAKVQWKVDNALQSGNSQESVTEQDSKDSTYSLSSTLTLSKADYEKHKVYACEVTHQGLSSPVTKSFNRGECGGSDYKDDDDK
notes: From library F. Purified Fab in most assays
